# Measurements: publication PMC5359625, “The Interrelationship between Abscisic Acid and Reactive Oxygen Species Plays a Key Role in Barley Seed Dormancy and Germination”
# B1: HvCAT2-probe (HvCAT2 promoter, ABRE) (dsDNA)
# DNA 1: CACACACACGCACTACGTTCCGAGCATTGCGTCGCGGTGGGTGAG
# DNA 2: CTCACCCACCGCGACGCAATGCTCGGAACGTAGTGCGTGTGTGTG
# B2: unlabeled HvCAT2 probe competitor (dsDNA)
# DNA 1: CACACACACGCACTACGTTCCGAGCATTGCGTCGCGGTGGGTGAG
# DNA 2: CTCACCCACCGCGACGCAATGCTCGGAACGTAGTGCGTGTGTGTG
# Columns and labels:
# GST-HvABI5 [1] = target: T1, GST-HvABI5 (Hordeum vulgare, UniProt Q8GTR6 1-353); assay: EMSA; DIG Gel Shift Kit 2nd Generation (Roche), manufacturer's conditions; buffer, salt, pH and temperature not stated; details: protein: recombinant; tags: N-terminal GST (pGEX); chain copies: 2; label: DIG; blunt
# T1 sequence: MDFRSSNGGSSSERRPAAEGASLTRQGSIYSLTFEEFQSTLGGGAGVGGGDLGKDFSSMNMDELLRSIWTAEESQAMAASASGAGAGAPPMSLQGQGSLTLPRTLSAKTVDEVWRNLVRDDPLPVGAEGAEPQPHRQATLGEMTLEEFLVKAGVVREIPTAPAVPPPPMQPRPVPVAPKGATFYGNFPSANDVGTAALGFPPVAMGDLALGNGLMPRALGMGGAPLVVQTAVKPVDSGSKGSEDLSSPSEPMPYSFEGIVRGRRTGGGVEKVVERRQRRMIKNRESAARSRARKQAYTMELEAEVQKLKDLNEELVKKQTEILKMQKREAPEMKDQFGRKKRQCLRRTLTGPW
# GST-HvABI5 [2] = target: T1, GST-HvABI5; assay: competition; 100x molar excess unlabeled competitor vs DIG-labeled N1; DIG Gel Shift Kit 2nd Generation (Roche), manufacturer's conditions; buffer, salt, pH and temperature not stated; details: protein: recombinant; tags: N-terminal GST (pGEX); chain copies: 2; label: none; blunt
Binder,binding result (GST-HvABI5 [1]),binding result (GST-HvABI5 [2])
B1,binds,–
B2,–,binds
